Experimental data published in the supplement of paper PMC12042874.
± gives the uncertainty stated by the source.

Experiment: amyloid nucleation score (Sup35N fusion, yeast selection) (log enrichment); library NNK3; higher = more nucleation; inactive = no reads after selection
Outline: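 Psi-negative yeast expressed Sup35N fused to peptides of 20 random codons. They were induced 24 hours with 100 μM copper sulfate, grown 7 days at 30°C without adenine and uracil, and their plasmid inserts from input and output were Illumina-sequenced. The nucleation score is the DiMSum log enrichment of output over input reads, centred on the mode score of non-aggregating sequences. Sequences with under 100 input reads were excluded.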
For FVIGRI, the amyloid nucleation score was “inactive”. Work on FVKCFNGAFWNEGPFCYLCG yielded an amyloid nucleation score of 0.331 ± 0.32. With FVKLIYWLGAWVSTLCG the amyloid nucleation score was “inactive”. FVLSMECSSRSSPSHTRDCA gave an amyloid nucleation score of -0.083 ± 0.33. For FVMGGGNGGHVGYMCFCEEV, the amyloid nucleation score was “inactive”. For FVMLVSEYGKELYIIGRPGA, the amyloid nucleation score was “inactive”. In the case of FVMSFAN, the amyloid nucleation score is reported as “inactive”. For FVNLAGLFGSRGTNLLCLGE, the amyloid nucleation score was “inactive”. With FVNQFLQKFMNLDKYIKLSH the amyloid nucleation score was “inactive”. In the case of FVQRWCYGGKCNGCVGSSGG, the amyloid nucleation score is reported as “inactive”. For FVSFGLGTMFDLRA, the amyloid nucleation score was “inactive”. For FVSLHTRLGDLHDVVCTLVF, the amyloid nucleation score was “inactive”. With FVSLSRNLNCTPRL the amyloid nucleation score was “inactive”. For FVSSVASFVSHKLVMKLSAM, the amyloid nucleation score was “inactive”. In the case of FVTVVGGLRWNVTFSERWSV, the amyloid nucleation score is reported as 0.081 ± 0.61. In the case of FVVCSAM, the amyloid nucleation score is reported as “inactive”. In the case of FVYDMHKHQIALRQVSSCEG, the amyloid nucleation score is reported as “inactive”. In the case of FWFLLWKRKDTLWAFR, the amyloid nucleation score is reported as “inactive”. With FWGSTWSLRVL the amyloid nucleation score was “inactive”. In the case of FWKLNFITIMCG, the amyloid nucleation score is reported as -0.34 ± 1. With FWLLIIVF the amyloid nucleation score was “inactive”. In the case of FWLYYNFQFLDDC, the amyloid nucleation score is reported as “inactive”. With FWMIVYMNNSLI the amyloid nucleation score was “inactive”. With FYDHRIRSCGLVFIKECVTP the amyloid nucleation score was “inactive”. With FYELEIV the amyloid nucleation score was “inactive”. In the case of FYLALIYNICFADRKLVGVC, the amyloid nucleation score is reported as “inactive”. With FYTMELISVQRI the amyloid nucleation score was “inactive”. With GAFCSND the amyloid nucleation score was “inactive”. In the case of GAGRNFGTVCL, the amyloid nucleation score is reported as “inactive”. GASKHT gave an amyloid nucleation score of 0.319 ± 0.33. With GAYSGLCSILGSFLGLSAVK the amyloid nucleation score was “inactive”. For GCFNSCILYVLRLSIASVVS, the amyloid nucleation score was “inactive”. With GCIDEDCGVLIIKFYNIRRY the amyloid nucleation score was 0.118 ± 0.59. In the case of GCIVFCCRTLVNFDVVVYWF, the amyloid nucleation score is reported as “inactive”. With GCNACVTSTCIRVVCGNLKC the amyloid nucleation score was 0.715 ± 0.3. In the case of GCNLTYNVIGFGLYMKFRDE, the amyloid nucleation score is reported as 1.85 ± 0.069. With GCSGVVVGCWRDPRICWLWW the amyloid nucleation score was “inactive”. In the case of GCSLTWAVAEALTILVNAYT, the amyloid nucleation score is reported as “inactive”. With GCVCQLR the amyloid nucleation score was “inactive”. For GCWNVMRRCVLLILPESYLV, the amyloid nucleation score was “inactive”. With GDCCHMADKTGGGTNRQIYH the amyloid nucleation score was “inactive”. For GDHYGVEYSHPL, the amyloid nucleation score was “inactive”. In the case of GDMVCFVLMKALV, the amyloid nucleation score is reported as “inactive”. In the case of GDPNPHYL, the amyloid nucleation score is reported as “inactive”. For GDRLFLKASG, the amyloid nucleation score was “inactive”. With GDRVSEVTDCVFQAISIRCA the amyloid nucleation score was “inactive”. For GDYDTMAEVKPFLDEKC, the amyloid nucleation score was “inactive”. With GEFYCVVLRQYVWAQDDAG the amyloid nucleation score was “inactive”. Substance GEISWDC has an amyloid nucleation score of 0.283 ± 0.3. In the case of GELKFLVLNRFE, the amyloid nucleation score is reported as “inactive”. GENWDCTCVADQCRNWTCYL showed an amyloid nucleation score of 0.282 ± 0.81. In the case of GERFAVTSVSDHVTDKKTLS, the amyloid nucleation score is reported as 1.77 ± 0.093. For GESYDCLLLHSRVWLSVVMG, the amyloid nucleation score was “inactive”. In the case of GEWLCVFFSWPSGSPIVPWE, the amyloid nucleation score is reported as “inactive”. For GEYMRLYVSVTGYTVYYSVR, the amyloid nucleation score was 0.882 ± 0.2. GFAGMLYDLLPFGNWSLPSH gave an amyloid nucleation score of -0.127 ± 0.75. In the case of GFDLEVNTGNVVGFEDSAGQ, the amyloid nucleation score is reported as “inactive”. In the case of GFEAPWA, the amyloid nucleation score is reported as “inactive”. GFEPRRYP showed an amyloid nucleation score of -0.646 ± 1.3. For GFEVNKACQLIEYPLFFTRL, the amyloid nucleation score was “inactive”. For GFGHGLKFRPRDRWGSIYPY, the amyloid nucleation score was “inactive”. With GFIDVPG the amyloid nucleation score was “inactive”. With GFIHWRGAIWVSL the amyloid nucleation score was -0.65 ± 1.9. For GFKVVSSLDFSCG, the amyloid nucleation score was 0.55 ± 0.31. With GFKVVYKIWLPASRSACDPW the amyloid nucleation score was 1.31 ± 0.13. Substance GFLCDGGN has an amyloid nucleation score of 0.149 ± 0.51. For GFLPA, the amyloid nucleation score was “inactive”. With GFLVNSISFSKSCYEHTIVW the amyloid nucleation score was “inactive”. For GFRYLRTDNYMPCRGESVGW, the amyloid nucleation score was “inactive”. With GFSDLCQHYFQYLVK the amyloid nucleation score was “inactive”. For GFSLFYYL, the amyloid nucleation score was “inactive”. For GFTVG, the amyloid nucleation score was “inactive”. In the case of GFWINVMISKTLRYGSKAWC, the amyloid nucleation score is reported as “inactive”. Work on GFYTVFCIMQSAEGLDGTVW yielded an amyloid nucleation score of 1.26 ± 0.12. With GFYVRRGCLWGGYNHVFAIF the amyloid nucleation score was “inactive”. With GGCLGICTAANLRSGNRITR the amyloid nucleation score was “inactive”. In the case of GGLLWAKCVMLILYYVPMGL, the amyloid nucleation score is reported as “inactive”. With GHKVVL the amyloid nucleation score was “inactive”. In the case of GHLESVFRSVDTLVSYSS, the amyloid nucleation score is reported as 0.138 ± 0.55. Substance GHNRYIDLSIEIRAL has an amyloid nucleation score of -0.61 ± 1.1. For GHVIMGLSGYGSLASLFKTG, the amyloid nucleation score was “inactive”. In the case of GIAIDREKVVPIRGYLWSVT, the amyloid nucleation score is reported as “inactive”. With GICHAACCCANVMYCSWHVR the amyloid nucleation score was 1 ± 0.16. With GICIGTDKTFYCLGMSFF the amyloid nucleation score was “inactive”. In the case of GICKGNMYRFSMSYDSNLIM, the amyloid nucleation score is reported as “inactive”. In the case of GIFLSEWWLGSVSCVRTNVP, the amyloid nucleation score is reported as “inactive”. GILFYTHGRKDASD gave an amyloid nucleation score of -0.348 ± 0.5. With GILIFTGYEDIFSCESDGSW the amyloid nucleation score was “inactive”. In the case of GISFSFRFLNENFHCVFRRA, the amyloid nucleation score is reported as “inactive”. With GISTGISWQLCGHSGDWYWW the amyloid nucleation score was -0.658 ± 1.9. With GIVNYRPAYP the amyloid nucleation score was “inactive”. In the case of GKDVSVGEVFKPLVSVRRVN, the amyloid nucleation score is reported as “inactive”. For GKEKCTMNSHATLRVDVEMT, the amyloid nucleation score was “inactive”. For GKKNYLF, the amyloid nucleation score was “inactive”. With GKLLP the amyloid nucleation score was “inactive”. For GKLTWIYIGIARPHEKMWLT, the amyloid nucleation score was “inactive”. For GKNKQLS, the amyloid nucleation score was “inactive”. In the case of GKVSAFCMHGGYTCDLSVEL, the amyloid nucleation score is reported as “inactive”. With GKWGWLIASWREFTS the amyloid nucleation score was “inactive”. Substance GLALNWLCG has an amyloid nucleation score of 0.026 ± 0.43. With GLDLRTCGCYHSIP the amyloid nucleation score was “inactive”. In the case of GLEGLLVLWFQCSFTVAALR, the amyloid nucleation score is reported as “inactive”. In the case of GLFLRMLLRADPAKSWENRI, the amyloid nucleation score is reported as 0.238 ± 0.27. For GLGSFLRQRRACPSGGTQ, the amyloid nucleation score was “inactive”. In the case of GLHIRFQNYLRQGQ, the amyloid nucleation score is reported as 1.22 ± 0.17. In the case of GLKCGFRPSSVINSYWSSQL, the amyloid nucleation score is reported as “inactive”. With GLKKWLFD the amyloid nucleation score was “inactive”. Work on GLKWWLISASSVNFICVRYT yielded an amyloid nucleation score of 0.104 ± 0.23. GLLAFKVLISKASVDFYNVS showed an amyloid nucleation score of -0.134 ± 0.4. For GLLCFK, the amyloid nucleation score was “inactive”. In the case of GLLNRIIVLYTLLNSDIRES, the amyloid nucleation score is reported as “inactive”. For GLLSHLDHLWVCGGWGSRKR, the amyloid nucleation score was “inactive”. GLNGIDLKLSVAGFVVFLGR showed an amyloid nucleation score of 1.48 ± 0.14. In the case of GLPFLSTMELLLLLMSKTMR, the amyloid nucleation score is reported as “inactive”. GLRGVDWVDREQLPGTVQGH gave an amyloid nucleation score of -0.589 ± 1.9. For GLRKMRGLTQ, the amyloid nucleation score was “inactive”. For GLRTFIG, the amyloid nucleation score was “inactive”. For GLSMLGGLNDSRTCSLVSNV, the amyloid nucleation score was “inactive”. For GLSNRTFSMISSLVRDTKRS, the amyloid nucleation score was “inactive”. With GLTWFKSIKVYVECLFRLSN the amyloid nucleation score was “inactive”. In the case of GLWRLSCKSYAWHF, the amyloid nucleation score is reported as “inactive”. Work on GLYSLYLFGTLYRQAQRGCE yielded an amyloid nucleation score of 0.52 ± 0.21. In the case of GMADKVDTCLWLMFY, the amyloid nucleation score is reported as “inactive”. Substance GMDSIWHFDCNLS has an amyloid nucleation score of 0.094 ± 0.81. GMGCTMLNYLMLWESFDTRP showed an amyloid nucleation score of 0.586 ± 0.17. With GMLGTGYVYPCWL the amyloid nucleation score was “inactive”. In the case of GMNYNKMRTVLSRAPPRVRS, the amyloid nucleation score is reported as “inactive”. With GMRCEYMILTFGLSWKLLLI the amyloid nucleation score was “inactive”. GMRFCVNVVCMRSLPSCAMK gave an amyloid nucleation score of 1.43 ± 0.095. In the case of GMTDNVPLGVKVKREMCQFA, the amyloid nucleation score is reported as “inactive”. Substance GNASMLWDNMSVVFLRGTLY has an amyloid nucleation score of 1.53 ± 0.074. In the case of GNGIFGLSPR, the amyloid nucleation score is reported as -1.04 ± 1.4. In the case of GNISIWGFRNSWALDLIAGY, the amyloid nucleation score is reported as “inactive”. In the case of GNLNGILFRISRQKEM, the amyloid nucleation score is reported as “inactive”. In the case of GNMKQWSIPPHIWTGQPPLM, the amyloid nucleation score is reported as “inactive”. For GNYIITLY, the amyloid nucleation score was “inactive”. With GPDWYWNLNV the amyloid nucleation score was “inactive”. For GPGQLYLLDM, the amyloid nucleation score was “inactive”. In the case of GPLESIFNQFAVIATVPRVW, the amyloid nucleation score is reported as “inactive”. For GPTNGFMSLNNWYQPLDQPV, the amyloid nucleation score was “inactive”. For GPTQIGNLMVTHKSQCSWFN, the amyloid nucleation score was “inactive”. With GPVLGSCIRRH the amyloid nucleation score was “inactive”. For GQCVLCMVNVLYLWAKYTNR, the amyloid nucleation score was “inactive”. In the case of GQDEPDCVG, the amyloid nucleation score is reported as 0.014 ± 0.52. For GQDRYLLAAYK, the amyloid nucleation score was “inactive”. Substance GQFCCVCARIKLCRYSFNCY has an amyloid nucleation score of 2.45 ± 0.082. In the case of GQTILC, the amyloid nucleation score is reported as “inactive”. In the case of GRCSQGSLGSAG, the amyloid nucleation score is reported as “inactive”. GRDAVLI gave an amyloid nucleation score of -0.785 ± 1.1. With GRDCICDLRMETIGDTFTGW the amyloid nucleation score was “inactive”. With GRDEQNHRFELVL the amyloid nucleation score was “inactive”. With GRDLLLRHTMSRGCQILLE the amyloid nucleation score was “inactive”. Work on GRGHGEGTRLASSTIVIMHV yielded an amyloid nucleation score of -0.395 ± 0.61. For GRGVDWMKQWNVHRKVLSSL, the amyloid nucleation score was “inactive”. For GRHKFRMVVIRAVRVSVLEN, the amyloid nucleation score was “inactive”. With GRHSALRASFGL the amyloid nucleation score was “inactive”. For GRILLYLNEFFSGRIISLHK, the amyloid nucleation score was “inactive”. Substance GRKDLKYIQSGDMQFQSSKW has an amyloid nucleation score of 0.138 ± 1. For GRKKWGLSQSCDKLPMGHTS, the amyloid nucleation score was “inactive”. For GRLCYNSTNYLRHAASCLSM, the amyloid nucleation score was “inactive”. With GRMEGNRFIDRLLGLHTSSP the amyloid nucleation score was “inactive”. For GRRTARKIKAGPYLCWKDGT, the amyloid nucleation score was “inactive”.
